Experimental data published in US20220112276A1 (Janssen / Centocor, published 2022).

T1: mouse pIgR extracellular domain (ECD) (mouse, UniProt O70570 19-645)
T1 construct: Bought from R&D Systems (Cat 2800-PG-050); also called mpIgR ECD
T1 sequence: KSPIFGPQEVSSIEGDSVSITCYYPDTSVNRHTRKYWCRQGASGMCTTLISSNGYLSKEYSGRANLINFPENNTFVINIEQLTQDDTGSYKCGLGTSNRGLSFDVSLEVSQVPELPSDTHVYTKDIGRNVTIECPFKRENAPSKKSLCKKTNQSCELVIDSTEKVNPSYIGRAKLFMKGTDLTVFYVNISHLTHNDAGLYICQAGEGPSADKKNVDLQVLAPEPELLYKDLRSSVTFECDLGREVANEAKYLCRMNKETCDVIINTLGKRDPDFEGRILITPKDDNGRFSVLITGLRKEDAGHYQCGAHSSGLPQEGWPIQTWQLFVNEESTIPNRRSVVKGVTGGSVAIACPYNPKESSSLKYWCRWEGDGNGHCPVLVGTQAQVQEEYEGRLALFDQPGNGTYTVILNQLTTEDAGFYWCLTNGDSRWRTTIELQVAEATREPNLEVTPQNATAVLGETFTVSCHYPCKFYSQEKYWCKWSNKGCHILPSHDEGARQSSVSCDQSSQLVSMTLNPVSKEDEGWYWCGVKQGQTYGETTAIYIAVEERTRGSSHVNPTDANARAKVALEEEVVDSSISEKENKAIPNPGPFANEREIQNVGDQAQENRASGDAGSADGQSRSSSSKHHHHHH

T2: rat pIgR extracellular domain (rat, UniProt P15083 19-643)
T2 construct: extracellular domain
T2 sequence (looked up): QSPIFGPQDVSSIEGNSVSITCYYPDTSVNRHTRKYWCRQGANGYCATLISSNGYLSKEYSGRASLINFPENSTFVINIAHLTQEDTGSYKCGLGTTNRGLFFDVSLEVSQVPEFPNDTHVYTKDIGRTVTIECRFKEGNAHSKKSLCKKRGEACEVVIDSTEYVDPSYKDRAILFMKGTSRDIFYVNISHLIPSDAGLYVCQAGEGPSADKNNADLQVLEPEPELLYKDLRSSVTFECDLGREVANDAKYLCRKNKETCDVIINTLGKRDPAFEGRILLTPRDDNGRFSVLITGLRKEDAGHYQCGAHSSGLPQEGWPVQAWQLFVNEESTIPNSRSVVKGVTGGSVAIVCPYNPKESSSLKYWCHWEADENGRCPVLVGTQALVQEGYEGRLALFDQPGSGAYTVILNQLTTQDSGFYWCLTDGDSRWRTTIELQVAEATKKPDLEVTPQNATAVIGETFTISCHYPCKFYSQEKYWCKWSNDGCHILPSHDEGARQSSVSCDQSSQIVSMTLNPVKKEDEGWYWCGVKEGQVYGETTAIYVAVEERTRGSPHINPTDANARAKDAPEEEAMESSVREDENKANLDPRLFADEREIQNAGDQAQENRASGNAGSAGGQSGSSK


How the values were obtained:
Experiment in all cases: SPR, VHH captured by anti-Fc, ECD analyte
[1] = target: T3, human pIgR extracellular domain (ECD) (human, UniProt P01833 19-638)
T3 construct: Bought from R&D Systems (Cat 2717-PG-050); also called hpIgR ECD
Summary of the method: (§1)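 Single-cycle kinetics: ECD analyte from 30 nM, 3-fold series, low to high, with 30 min off-rate monitoring, over VHH captured at 0.5 ug/ml (~200-300 RU). HBSP plus 100 ug/ml BSA at 30 μL/min. Reference cell and buffer blank subtracted; global 1:1 Langmuir fit gave kon, koff, KD.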

[2] = target: T1, mouse pIgR extracellular domain (ECD)
Summary of the method: as §1

[3] = target: T4, cynomolgus monkey pIgR extracellular domain (cynomolgus monkey, UniProt A0A2K5WMU9 19-638)
T4 construct: extracellular domain
Summary of the method: as §1

[4] = target: T2, rat pIgR extracellular domain
Summary of the method: as §1

T3 sequence (P01833 other isoform, or with tags, fused parts or gaps): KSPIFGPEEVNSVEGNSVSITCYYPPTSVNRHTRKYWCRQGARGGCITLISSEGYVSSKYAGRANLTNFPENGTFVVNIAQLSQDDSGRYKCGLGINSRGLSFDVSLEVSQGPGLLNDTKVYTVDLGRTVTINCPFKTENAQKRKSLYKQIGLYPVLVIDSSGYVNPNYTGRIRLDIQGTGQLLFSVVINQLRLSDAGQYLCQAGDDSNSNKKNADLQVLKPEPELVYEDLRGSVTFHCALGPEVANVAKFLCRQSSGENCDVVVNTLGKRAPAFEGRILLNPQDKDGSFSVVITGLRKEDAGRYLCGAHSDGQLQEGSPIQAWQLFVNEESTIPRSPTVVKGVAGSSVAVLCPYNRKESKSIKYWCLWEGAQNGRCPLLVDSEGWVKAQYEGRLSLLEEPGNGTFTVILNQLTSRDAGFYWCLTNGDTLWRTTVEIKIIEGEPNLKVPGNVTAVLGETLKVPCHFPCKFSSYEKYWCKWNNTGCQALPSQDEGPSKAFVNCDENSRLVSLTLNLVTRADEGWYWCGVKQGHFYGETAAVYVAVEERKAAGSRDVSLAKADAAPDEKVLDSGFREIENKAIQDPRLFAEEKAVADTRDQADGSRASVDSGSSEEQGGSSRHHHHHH
T4 sequence (A0A2K5WMU9 entry or part of it): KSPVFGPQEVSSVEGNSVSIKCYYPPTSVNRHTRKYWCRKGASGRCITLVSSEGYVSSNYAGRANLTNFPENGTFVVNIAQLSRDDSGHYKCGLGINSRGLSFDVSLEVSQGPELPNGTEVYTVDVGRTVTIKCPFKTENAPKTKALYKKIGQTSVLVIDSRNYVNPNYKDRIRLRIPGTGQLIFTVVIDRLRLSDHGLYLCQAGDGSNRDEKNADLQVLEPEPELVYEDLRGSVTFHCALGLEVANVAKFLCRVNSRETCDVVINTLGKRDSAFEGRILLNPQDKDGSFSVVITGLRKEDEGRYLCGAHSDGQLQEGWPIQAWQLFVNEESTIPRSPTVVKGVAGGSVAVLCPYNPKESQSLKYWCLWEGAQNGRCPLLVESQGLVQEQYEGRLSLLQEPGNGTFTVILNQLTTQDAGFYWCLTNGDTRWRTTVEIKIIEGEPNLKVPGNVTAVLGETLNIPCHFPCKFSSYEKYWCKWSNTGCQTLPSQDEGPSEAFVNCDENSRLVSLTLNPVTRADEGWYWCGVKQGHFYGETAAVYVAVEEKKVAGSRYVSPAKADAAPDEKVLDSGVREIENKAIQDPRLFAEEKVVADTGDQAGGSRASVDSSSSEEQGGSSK

Binder | Kd [1] | Kd [2] | Kd [3] | Kd [4]
01G07R2L VHH Mono-Fc (Fc fusion) QVQLVESGGGLVQPGGSLRLSCVASGLPFSSSRMAWFAQAPGKEREFVAAIGWRGRTSYKYYADSVKGRFTVSGDNAKKTLDLQMKDLKPEDTALYFCAAHPNDDGDPRISGNYQYWGQGTQVTVSSSPAPELLGGPSVFLFPPKPKDTLMISRTPEVTCVVVDVSHEDPEVKFNWYVDGVEVHNAKTKPREEQYNSTYRVVSVLTVLHQDWLNGKEYKCKVSNKALPAPIEKTISKAKGQPREPQVYTKPPSREEMTKNQVSLSCLVKGFYPSDIAVEWESNGQPENNYKTTVPVLDSDGSFRLASYLTVDKSRWQQGNVFSCSVMHEALHNHYTQKSLSLSPGK | 3.32 nM | 0.948 nM | 4.02 nM | 1.44 nM
01F12R2 VHH Mono-Fc (Fc fusion) EVQLVESGGGLVQPGGSLRLSCAASGRTFSSYTMGWFRQAPGEEREFVSAISWSSDGTYYKYYTDTVKGRFTISRDNAETTVHLQMNSLKPEDTAVYYCAASSSGTYGDPRSEREYRYWGQGTLVTVSSSPAPELLGGPSVFLFPPKPKDTLMISRTPEVTCVVVDVSHEDPEVKFNWYVDGVEVHNAKTKPREEQYNSTYRVVSVLTVLHQDWLNGKEYKCKVSNKALPAPIEKTISKAKGQPREPQVYTKPPSREEMTKNQVSLSCLVKGFYPSDIAVEWESNGQPENNYKTTVPVLDSDGSFRLASYLTVDKSRWQQGNVFSCSVMHEALHNHYTQKSLSLSPGK | 12.5 nM | 264 nM | 3.17 nM | 4.2 nM
01C12R2 VHH Mono-Fc (Fc fusion) EVQLVESGGGLVQAGGSLRLSCAASGRTFGSYSMGWFRQAPGKEREFVGAISWSGSSTYKYYEDSVKGRFTISRDNAKNTVPLQMNSLKPEDTGVYFCGGTMERRDPRRTSAYDYWGQGTLVTVSSSPAPELLGGPSVFLFPPKPKDTLMISRTPEVTCVVVDVSHEDPEVKFNWYVDGVEVHNAKTKPREEQYNSTYRVVSVLTVLHQDWLNGKEYKCKVSNKALPAPIEKTISKAKGQPREPQVYTKPPSREEMTKNQVSLSCLVKGFYPSDIAVEWESNGQPENNYKTTVPVLDSDGSFRLASYLTVDKSRWQQGNVFSCSVMHEALHNHYTQKSLSLSPGK | 21.4 nM | 4.76 nM | 23 nM | 14.1 nM
01F03R2LS VHH Mono-Fc (Fc fusion) EVQLVESGGGLVQAGDSLRLSCAASGRTGSSGAMGWFRQGPGKEREFVAALMWRNTVTYKYYEDSVKGRFTISRDNAKNTAYLQMNSLKPEDTAVYYCAADPDTYGDPRNSGAYDYWGQGTLVTVSSSPAPELLGGPSVFLFPPKPKDTLMISRTPEVTCVVVDVSHEDPEVKFNWYVDGVEVHNAKTKPREEQYNSTYRVVSVLTVLHQDWLNGKEYKCKVSNKALPAPIEKTISKAKGQPREPQVYTKPPSREEMTKNQVSLSCLVKGFYPSDIAVEWESNGQPENNYKTTVPVLDSDGSFRLASYLTVDKSRWQQGNVFSCSVMHEALHNHYTQKSLSLSPGK | 26.2 nM | 1.57 nM | 34.4 nM | 8.05 nM
01B02R2L VHH Mono-Fc (Fc fusion) EVQLVESGGGLVQAGGSLKLACAASGLTFSSYRMGWFRQAPGKEREFVAAIDWNGRGTYYRYYADSVKGRFTISRDNAKNTMCLQMNSLKPEDTAVYYSAIDSRTSIDPRTSGHYRYWGQGTLVTVSSSPAPELLGGPSVFLFPPKPKDTLMISRTPEVTCVVVDVSHEDPEVKFNWYVDGVEVHNAKTKPREEQYNSTYRVVSVLTVLHQDWLNGKEYKCKVSNKALPAPIEKTISKAKGQPREPQVYTKPPSREEMTKNQVSLSCLVKGFYPSDIAVEWESNGQPENNYKTTVPVLDSDGSFRLASYLTVDKSRWQQGNVFSCSVMHEALHNHYTQKSLSLSPGK | 20.2 nM | 4.47 nM | 14.2 nM | 13.4 nM

The next lines start with the values.

Kd [1] | Kd [2] | Kd [3] | Kd [4] | Binder
4.87 nM | 0.8 nM | 2.84 nM | 3.02 nM | 01C03R3LS VHH Mono-Fc (Fc fusion) EVQLVESGGGLVQPGGSLRLSCVASGLPGSSSRMAWFAQAPGKEREFVAAIAWRGRTSYKYYSDSVKGRFTVSGDNAKRTLDLQMKDLNPEDTALYFCAAHPNDDGDPRISGNYQYWGQGTQVTVSSSPAPELLGGPSVFLFPPKPKDTLMISRTPEVTCVVVDVSHEDPEVKFNWYVDGVEVHNAKTKPREEQYNSTYRVVSVLTVLHQDWLNGKEYKCKVSNKALPAPIEKTISKAKGQPREPQVYTKPPSREEMTKNQVSLSCLVKGFYPSDIAVEWESNGQPENNYKTTVPVLDSDGSFRLASYLTVDKSRWQQGNVFSCSVMHEALHNHYTQKSLSLSPGK
0.397 nM | 985 nM | 566 nM | 70.8 nM | 01F09R3 VHH Mono-Fc (Fc fusion) QVQLVESGGGLAQAGGSLTLSCAASGTAAGIDVMGWYRQTPGNSREFVARIFSNDVTHYADSVTGRFTLSRTQDKNTVSLQMNSLKPDDTGVYYCNARIWTGSTTVDYWGQGTQVTVSSSPAPELLGGPSVFLFPPKPKDTLMISRTPEVTCVVVDVSHEDPEVKFNWYVDGVEVHNAKTKPREEQYNSTYRVVSVLTVLHQDWLNGKEYKCKVSNKALPAPIEKTISKAKGQPREPQVYTKPPSREEMTKNQVSLSCLVKGFYPSDIAVEWESNGQPENNYKTTVPVLDSDGSFRLASYLTVDKSRWQQGNVFSCSVMHEALHNHYTQKSLSLSPGK
1.31 nM | 14 nM | 4.93 nM | 1.34 nM | 01A01R3 VHH Mono-Fc (Fc fusion) EVQLVESGGGLVQAGGSLRLSCAASGSGRTFTSYTMGWFRQAPGKEREFVSALTWADDSTYYKYYADSMKGRLTISRDNAKNTVYLQMNSLKPEDTAVYYCVATGRGLTYDPRDRRKYDYWGQGTQVTVSSSPAPELLGGPSVFLFPPKPKDTLMISRTPEVTCVVVDVSHEDPEVKFNWYVDGVEVHNAKTKPREEQYNSTYRVVSVLTVLHQDWLNGKEYKCKVSNKALPAPIEKTISKAKGQPREPQVYTKPPSREEMTKNQVSLSCLVKGFYPSDIAVEWESNGQPENNYKTTVPVLDSDGSFRLASYLTVDKSRWQQGNVFSCSVMHEALHNHYTQKSLSLSPGK
5.37 nM | 3.76 nM | 3.97 nM | 1.36 nM | 01E04R3LS VHH Mono-Fc (Fc fusion) EVQLVESGGGLVQAGDSLRLSCAASGRTFTTYVMGWFRQAPGKDREFVATITWSGSTNYKYYADPVKGRFTISRDNAKNTVYLQMNSLKPEDTAVYYCTSSTVVTDPRKLNEYAYWGQGTLVTVSSSPAPELLGGPSVFLFPPKPKDTLMISRTPEVTCVVVDVSHEDPEVKFNWYVDGVEVHNAKTKPREEQYNSTYRVVSVLTVLHQDWLNGKEYKCKVSNKALPAPIEKTISKAKGQPREPQVYTKPPSREEMTKNQVSLSCLVKGFYPSDIAVEWESNGQPENNYKTTVPVLDSDGSFRLASYLTVDKSRWQQGNVFSCSVMHEALHNHYTQKSLSLSPGK
0.094 nM | 9.02 nM | 16.5 nM | 1.83 nM | 03C05R3 VHH Mono-Fc (Fc fusion) EVQLVESGGGLVKAEGSLRLSCVASTSIASINVMGWYRQAPGKERELVARISGGGITHYAESVEGRFTISRDNAKNTVHLQMNGLKPEDTAAYYCKADVFASSGHVTTYWGQGTLVTVSSSPAPELLGGPSVFLFPPKPKDTLMISRTPEVTCVVVDVSHEDPEVKFNWYVDGVEVHNAKTKPREEQYNSTYRVVSVLTVLHQDWLNGKEYKCKVSNKALPAPIEKTISKAKGQPREPQVYTKPPSREEMTKNQVSLSCLVKGFYPSDIAVEWESNGQPENNYKTTVPVLDSDGSFRLASYLTVDKSRWQQGNVFSCSVMHEALHNHYTQKSLSLSPGK
